Experimental data: the supplement of paper PMC10065799, “High-throughput profiling of sequence recognition by tyrosine kinases and SH2 domains using bacterial peptide display” (eLife, 2023)

target: Fes (UniProt P07332); assay: phosphorylation enrichment, bacterial display (enrichment ratio); higher = better substrate or ligand; peptides without Tyr show the background
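Note: 11-residue human phosphosite peptides and single-mutation variants displayed on the E. coli surface, counted by deep sequencing, each peptide's frequency after selection divided by its frequency in the unselected input library; frequency after pTyr selection over input frequency; kinase dosed for 20-30% of maximal phosphorylation in three min.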

Fes, sequence (P07332 whole entry, looked up): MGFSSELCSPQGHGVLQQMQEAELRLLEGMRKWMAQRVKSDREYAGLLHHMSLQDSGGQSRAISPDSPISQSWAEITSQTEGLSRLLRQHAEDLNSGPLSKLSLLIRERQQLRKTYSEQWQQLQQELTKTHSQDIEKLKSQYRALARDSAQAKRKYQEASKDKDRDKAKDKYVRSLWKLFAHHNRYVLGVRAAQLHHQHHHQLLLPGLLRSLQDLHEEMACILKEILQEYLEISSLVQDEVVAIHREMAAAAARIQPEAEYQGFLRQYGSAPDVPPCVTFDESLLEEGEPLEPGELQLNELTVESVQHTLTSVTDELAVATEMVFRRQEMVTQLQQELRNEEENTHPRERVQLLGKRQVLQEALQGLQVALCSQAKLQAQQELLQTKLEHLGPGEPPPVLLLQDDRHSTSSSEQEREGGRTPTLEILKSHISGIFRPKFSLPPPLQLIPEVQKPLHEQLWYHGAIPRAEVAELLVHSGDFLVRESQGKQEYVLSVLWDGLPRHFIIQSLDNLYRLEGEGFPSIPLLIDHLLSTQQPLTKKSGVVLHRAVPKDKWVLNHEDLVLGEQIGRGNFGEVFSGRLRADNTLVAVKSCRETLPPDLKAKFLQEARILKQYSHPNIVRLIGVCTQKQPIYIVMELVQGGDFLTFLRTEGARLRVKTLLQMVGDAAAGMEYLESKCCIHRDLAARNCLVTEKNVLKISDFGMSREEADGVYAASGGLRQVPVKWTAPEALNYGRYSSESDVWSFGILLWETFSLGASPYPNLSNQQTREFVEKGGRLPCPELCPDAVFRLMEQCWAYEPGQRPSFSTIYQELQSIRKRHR

Q: LMIEEYLTKEL [BAG3_Y457] was tested. Which phosphorylation enrichment did it give?
A: Its phosphorylation enrichment is 2.04.

Q: With LGPDGYSTVDQ [ARVCF_Y901_R906Q] as the sequence, how does the phosphorylation enrichment read?
A: Its phosphorylation enrichment is 2.87.

Q: With FGMSSYITRED [FNDC3B_Y180_T179S_YF] as the sequence, how does the phosphorylation enrichment read?
A: Its phosphorylation enrichment is 0.891.

Q: With GTATAYLCRVK [ALPL_Y117_G120R] as the sequence, how does the phosphorylation enrichment read?
A: The phosphorylation enrichment was 0.804.

Q: Which phosphorylation enrichment does the source give for YEAMEYLESKQ [BTK_Y511_C506Y] here?
A: The phosphorylation enrichment was 1.28.

Q: How did the phosphorylation enrichment turn out when LGQGKYSEVFE [CSNK2A1_Y50_R47Q] was run?
A: The phosphorylation enrichment was 1.

Q: How did the phosphorylation enrichment turn out when FAANFYKLLGN [ROR2_Y646_D644N_YF] was run?
A: The phosphorylation enrichment was 0.986.

Q: For MSSLYYANTLF [HOXB7_Y6], which phosphorylation enrichment is on record?
A: Its phosphorylation enrichment is 1.01.

Q: Which phosphorylation enrichment does the source give for DDEVFYSPLSL [OTC_Y317_R320L] here?
A: Its phosphorylation enrichment is 1.2.

Q: With YYYDLYGGEKF [PTPN11_Y66_D61Y] as the sequence, how does the phosphorylation enrichment read?
A: Its phosphorylation enrichment is 1.3.

Q: Which phosphorylation enrichment does the source give for DGPVNYEEFVQ [CALM2_Y139_Q136P] here?
A: The phosphorylation enrichment was 1.12.

Q: Which phosphorylation enrichment does the source give for IYLADCRIMEG [ALOX12B_Y318_Y318C] here?
A: The phosphorylation enrichment was 1.36.

Q: RAWPPYTVAAD [ANKZF1_Y572_R569W] was tested. Which phosphorylation enrichment did it give?
A: The phosphorylation enrichment was 1.11.

tested on: Fer (mouse); assay: as above

Q: For LMIEEYLTKEL [BAG3_Y457], which phosphorylation enrichment is on record?
A: The phosphorylation enrichment was 0.629.

Q: For LGPDGYSTVDQ [ARVCF_Y901_R906Q], which phosphorylation enrichment is on record?
A: Its phosphorylation enrichment is 0.833.

Q: For FGMSSYITRED [FNDC3B_Y180_T179S_YF], which phosphorylation enrichment is on record?
A: The phosphorylation enrichment was 0.544.

Q: With GTATAYLCRVK [ALPL_Y117_G120R] as the sequence, how does the phosphorylation enrichment read?
A: Its phosphorylation enrichment is 0.517.

Q: Which phosphorylation enrichment does the source give for YEAMEYLESKQ [BTK_Y511_C506Y] here?
A: Its phosphorylation enrichment is 3.06.

Q: Which phosphorylation enrichment does the source give for LGQGKYSEVFE [CSNK2A1_Y50_R47Q] here?
A: Its phosphorylation enrichment is 0.455.

Q: How did the phosphorylation enrichment turn out when FAANFYKLLGN [ROR2_Y646_D644N_YF] was run?
A: The phosphorylation enrichment was 0.347.

Q: How did the phosphorylation enrichment turn out when MSSLYYANTLF [HOXB7_Y6] was run?
A: The phosphorylation enrichment was 5.33.

Q: With DDEVFYSPLSL [OTC_Y317_R320L] as the sequence, how does the phosphorylation enrichment read?
A: The phosphorylation enrichment was 11.1.

Q: How did the phosphorylation enrichment turn out when YYYDLYGGEKF [PTPN11_Y66_D61Y] was run?
A: Its phosphorylation enrichment is 4.15.

Q: DGPVNYEEFVQ [CALM2_Y139_Q136P] was tested. Which phosphorylation enrichment did it give?
A: Its phosphorylation enrichment is 0.601.

Q: Which phosphorylation enrichment does the source give for IYLADCRIMEG [ALOX12B_Y318_Y318C] here?
A: The phosphorylation enrichment was 0.65.

Q: Which phosphorylation enrichment does the source give for RAWPPYTVAAD [ANKZF1_Y572_R569W] here?
A: Its phosphorylation enrichment is 0.631.

target: MERTK (UniProt Q12866); assay: as above
Sequence (Q12866 whole entry, looked up): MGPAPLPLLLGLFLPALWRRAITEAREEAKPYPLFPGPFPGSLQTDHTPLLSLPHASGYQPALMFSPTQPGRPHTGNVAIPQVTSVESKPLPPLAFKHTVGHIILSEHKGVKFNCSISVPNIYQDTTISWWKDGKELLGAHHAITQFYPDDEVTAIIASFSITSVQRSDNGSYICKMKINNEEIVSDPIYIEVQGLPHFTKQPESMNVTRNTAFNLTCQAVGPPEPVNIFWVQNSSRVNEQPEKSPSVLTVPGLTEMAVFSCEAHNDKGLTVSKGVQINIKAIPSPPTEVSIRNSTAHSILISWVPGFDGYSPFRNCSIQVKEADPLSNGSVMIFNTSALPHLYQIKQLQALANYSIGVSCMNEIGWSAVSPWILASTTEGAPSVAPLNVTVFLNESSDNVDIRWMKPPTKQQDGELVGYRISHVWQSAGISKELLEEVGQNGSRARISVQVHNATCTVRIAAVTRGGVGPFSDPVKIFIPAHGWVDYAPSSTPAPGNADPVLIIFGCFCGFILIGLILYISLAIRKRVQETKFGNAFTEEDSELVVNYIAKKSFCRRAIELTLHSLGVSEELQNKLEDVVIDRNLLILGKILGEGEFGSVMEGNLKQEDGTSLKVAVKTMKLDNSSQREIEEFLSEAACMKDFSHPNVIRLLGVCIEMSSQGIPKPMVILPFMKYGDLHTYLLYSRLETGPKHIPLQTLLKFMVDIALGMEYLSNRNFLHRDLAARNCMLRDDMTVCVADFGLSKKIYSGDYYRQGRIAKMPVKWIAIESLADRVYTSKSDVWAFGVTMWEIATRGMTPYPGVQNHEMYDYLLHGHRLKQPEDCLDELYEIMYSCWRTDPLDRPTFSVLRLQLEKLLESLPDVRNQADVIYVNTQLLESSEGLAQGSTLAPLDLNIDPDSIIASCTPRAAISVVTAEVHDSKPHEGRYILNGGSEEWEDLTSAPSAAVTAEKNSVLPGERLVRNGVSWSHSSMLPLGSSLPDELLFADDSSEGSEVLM

Q: Which phosphorylation enrichment does the source give for LMIEEYLTKEL [BAG3_Y457] here?
A: The phosphorylation enrichment was 0.872.

Q: LGPDGYSTVDQ [ARVCF_Y901_R906Q] was tested. Which phosphorylation enrichment did it give?
A: The phosphorylation enrichment was 0.707.

Q: Which phosphorylation enrichment does the source give for FGMSSYITRED [FNDC3B_Y180_T179S_YF] here?
A: The phosphorylation enrichment was 0.527.

Q: With GTATAYLCRVK [ALPL_Y117_G120R] as the sequence, how does the phosphorylation enrichment read?
A: Its phosphorylation enrichment is 0.363.

Q: How did the phosphorylation enrichment turn out when YEAMEYLESKQ [BTK_Y511_C506Y] was run?
A: Its phosphorylation enrichment is 3.12.

Q: How did the phosphorylation enrichment turn out when LGQGKYSEVFE [CSNK2A1_Y50_R47Q] was run?
A: Its phosphorylation enrichment is 0.535.

Q: FAANFYKLLGN [ROR2_Y646_D644N_YF] was tested. Which phosphorylation enrichment did it give?
A: The phosphorylation enrichment was 0.419.

Q: With MSSLYYANTLF [HOXB7_Y6] as the sequence, how does the phosphorylation enrichment read?
A: Its phosphorylation enrichment is 10.8.

Q: DDEVFYSPLSL [OTC_Y317_R320L] was tested. Which phosphorylation enrichment did it give?
A: The phosphorylation enrichment was 5.35.

Q: YYYDLYGGEKF [PTPN11_Y66_D61Y] was tested. Which phosphorylation enrichment did it give?
A: The phosphorylation enrichment was 9.48.

Q: Which phosphorylation enrichment does the source give for DGPVNYEEFVQ [CALM2_Y139_Q136P] here?
A: The phosphorylation enrichment was 0.474.

Q: How did the phosphorylation enrichment turn out when IYLADCRIMEG [ALOX12B_Y318_Y318C] was run?
A: The phosphorylation enrichment was 0.556.

Q: How did the phosphorylation enrichment turn out when RAWPPYTVAAD [ANKZF1_Y572_R569W] was run?
A: The phosphorylation enrichment was 0.475.

tested on: c-Src; assay: as above

Q: With LMIEEYLTKEL [BAG3_Y457] as the sequence, how does the phosphorylation enrichment read?
A: The phosphorylation enrichment was 1.18.

Q: LGPDGYSTVDQ [ARVCF_Y901_R906Q] was tested. Which phosphorylation enrichment did it give?
A: Its phosphorylation enrichment is 0.848.

Q: For FGMSSYITRED [FNDC3B_Y180_T179S_YF], which phosphorylation enrichment is on record?
A: The phosphorylation enrichment was 0.442.

Q: For GTATAYLCRVK [ALPL_Y117_G120R], which phosphorylation enrichment is on record?
A: The phosphorylation enrichment was 0.399.

Q: Which phosphorylation enrichment does the source give for YEAMEYLESKQ [BTK_Y511_C506Y] here?
A: Its phosphorylation enrichment is 0.568.

Q: LGQGKYSEVFE [CSNK2A1_Y50_R47Q] was tested. Which phosphorylation enrichment did it give?
A: Its phosphorylation enrichment is 0.574.

Q: For FAANFYKLLGN [ROR2_Y646_D644N_YF], which phosphorylation enrichment is on record?
A: Its phosphorylation enrichment is 0.46.

Q: For MSSLYYANTLF [HOXB7_Y6], which phosphorylation enrichment is on record?
A: The phosphorylation enrichment was 4.4.

Q: With DDEVFYSPLSL [OTC_Y317_R320L] as the sequence, how does the phosphorylation enrichment read?
A: Its phosphorylation enrichment is 5.55.

Q: How did the phosphorylation enrichment turn out when YYYDLYGGEKF [PTPN11_Y66_D61Y] was run?
A: Its phosphorylation enrichment is 5.71.

Q: For DGPVNYEEFVQ [CALM2_Y139_Q136P], which phosphorylation enrichment is on record?
A: The phosphorylation enrichment was 0.532.

Q: How did the phosphorylation enrichment turn out when IYLADCRIMEG [ALOX12B_Y318_Y318C] was run?
A: The phosphorylation enrichment was 0.559.

Q: For RAWPPYTVAAD [ANKZF1_Y572_R569W], which phosphorylation enrichment is on record?
A: The phosphorylation enrichment was 0.618.
